The target in the experiment is complement component C5 in pooled human plasma (human, UniProt P01031 19-1676). Nature of the experiment: cell-based or functional assay.

Bridges are numbered along the chain shown (N, C = ends). Where no end group is shown, it is not given here.

complement component C5 in pooled human plasma, sequence (P01031 19-1676 limits assumed): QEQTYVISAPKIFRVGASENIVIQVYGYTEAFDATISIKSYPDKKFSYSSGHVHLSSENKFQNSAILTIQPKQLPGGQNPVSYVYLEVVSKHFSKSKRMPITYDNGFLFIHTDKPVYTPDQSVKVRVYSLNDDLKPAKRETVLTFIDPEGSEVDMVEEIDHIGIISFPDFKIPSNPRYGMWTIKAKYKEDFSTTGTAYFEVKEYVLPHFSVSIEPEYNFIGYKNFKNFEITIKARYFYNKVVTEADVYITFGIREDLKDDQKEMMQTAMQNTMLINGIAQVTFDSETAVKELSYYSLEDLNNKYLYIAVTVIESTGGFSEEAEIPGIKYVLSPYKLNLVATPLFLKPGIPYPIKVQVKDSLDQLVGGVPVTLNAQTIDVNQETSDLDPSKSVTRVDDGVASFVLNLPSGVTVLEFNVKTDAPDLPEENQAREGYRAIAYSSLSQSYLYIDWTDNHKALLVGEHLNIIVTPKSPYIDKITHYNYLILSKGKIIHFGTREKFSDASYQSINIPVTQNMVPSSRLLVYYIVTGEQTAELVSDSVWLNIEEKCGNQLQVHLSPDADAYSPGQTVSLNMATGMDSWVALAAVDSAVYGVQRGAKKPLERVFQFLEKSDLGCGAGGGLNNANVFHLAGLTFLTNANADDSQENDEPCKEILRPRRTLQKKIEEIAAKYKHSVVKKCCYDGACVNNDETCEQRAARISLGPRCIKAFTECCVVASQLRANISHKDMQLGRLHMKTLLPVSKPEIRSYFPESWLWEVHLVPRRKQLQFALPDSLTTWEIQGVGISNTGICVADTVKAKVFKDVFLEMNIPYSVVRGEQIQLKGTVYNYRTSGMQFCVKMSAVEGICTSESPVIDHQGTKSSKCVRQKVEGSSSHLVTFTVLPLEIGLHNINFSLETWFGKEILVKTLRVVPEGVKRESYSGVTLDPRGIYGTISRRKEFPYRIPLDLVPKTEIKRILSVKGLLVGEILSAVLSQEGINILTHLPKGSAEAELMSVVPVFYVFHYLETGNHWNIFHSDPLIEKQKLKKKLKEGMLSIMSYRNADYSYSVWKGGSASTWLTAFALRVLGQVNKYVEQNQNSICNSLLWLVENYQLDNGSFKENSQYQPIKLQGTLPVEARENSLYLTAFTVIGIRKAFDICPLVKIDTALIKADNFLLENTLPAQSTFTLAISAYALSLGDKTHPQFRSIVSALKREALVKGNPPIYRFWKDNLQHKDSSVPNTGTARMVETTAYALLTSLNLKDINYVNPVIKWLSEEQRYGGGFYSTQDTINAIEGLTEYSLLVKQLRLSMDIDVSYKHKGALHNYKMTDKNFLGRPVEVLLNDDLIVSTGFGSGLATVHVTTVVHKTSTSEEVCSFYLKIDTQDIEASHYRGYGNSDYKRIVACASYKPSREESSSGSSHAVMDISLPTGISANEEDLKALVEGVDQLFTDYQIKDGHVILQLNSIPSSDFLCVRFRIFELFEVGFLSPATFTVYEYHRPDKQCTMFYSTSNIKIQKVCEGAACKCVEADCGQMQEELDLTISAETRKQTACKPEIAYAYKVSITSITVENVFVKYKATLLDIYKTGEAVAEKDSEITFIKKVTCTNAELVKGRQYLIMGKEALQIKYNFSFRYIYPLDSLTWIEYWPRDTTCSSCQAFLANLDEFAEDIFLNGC

SFNDLLWRWEWP [Peptide 7 (SEQ ID NO 7)]: the “IC50 of inhibition of classical pathway hemolysis (antibody sensitized sheep erythrocytes, human plasma)” value is 48.9 µM.

As to TQDNRWEFPLRV [Peptide 13 (SEQ ID NO 13)], the “IC50 of inhibition of classical pathway hemolysis (antibody sensitized sheep erythrocytes, human plasma)” value worked out at 29.2 µM. Turning to DSTWTNFRWEFY [Peptide 8 (SEQ ID NO 8)], the “IC50 of inhibition of classical pathway hemolysis (antibody sensitized sheep erythrocytes, human plasma)” value was determined as 5.8 µM.

On to SDMCAAPWLCPV (disulfide 4-10 (inferred)) [Peptide 6 (SEQ ID NO 6)], for which the “IC50 of inhibition of classical pathway hemolysis (antibody sensitized sheep erythrocytes, human plasma)” value worked out at 3 µM.

(Values after patent publication US20050090448A1 (BAXTER INTERNATIONAL, published 2005).)
